Experiments:
INN1-MBP (ELF3a) = target: T1, INN1-MBP (ELF3a) (Glycine max, UniProt K7KI62 1-714); test: EMSA; INN1 alone; probe taken to be the ENOD40 probe of Table S1; LightShift Chemiluminescent EMSA Kit (Pierce) binding buffer, composition, salt and pH not stated; room temperature 20 min; 6% native PAGE; conditions: protein: recombinant; tags: MBP; label: biotin; blunt
T1 sequence: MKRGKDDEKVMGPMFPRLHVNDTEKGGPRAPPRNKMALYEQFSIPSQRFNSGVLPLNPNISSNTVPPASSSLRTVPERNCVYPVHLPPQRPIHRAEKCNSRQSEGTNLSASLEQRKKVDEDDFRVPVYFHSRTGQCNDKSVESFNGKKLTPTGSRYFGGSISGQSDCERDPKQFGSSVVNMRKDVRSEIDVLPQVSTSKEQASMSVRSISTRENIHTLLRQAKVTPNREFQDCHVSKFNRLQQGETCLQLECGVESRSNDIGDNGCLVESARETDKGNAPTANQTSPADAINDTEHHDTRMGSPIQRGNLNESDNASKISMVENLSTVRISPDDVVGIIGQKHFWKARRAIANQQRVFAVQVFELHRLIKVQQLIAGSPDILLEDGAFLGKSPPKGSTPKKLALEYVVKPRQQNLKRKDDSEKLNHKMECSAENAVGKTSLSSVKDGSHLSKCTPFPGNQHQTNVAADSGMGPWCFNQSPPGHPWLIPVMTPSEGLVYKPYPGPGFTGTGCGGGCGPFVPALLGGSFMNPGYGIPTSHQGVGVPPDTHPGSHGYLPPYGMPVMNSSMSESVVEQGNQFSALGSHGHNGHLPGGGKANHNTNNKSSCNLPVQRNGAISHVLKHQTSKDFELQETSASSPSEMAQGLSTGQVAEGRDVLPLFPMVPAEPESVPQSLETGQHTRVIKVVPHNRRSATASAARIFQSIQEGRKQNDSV

LUX1-MBP = target: T2, LUX1-MBP (Glycine max, UniProt K7LTA3 1-306); test: EMSA; LightShift Chemiluminescent EMSA Kit (Pierce) binding buffer, composition, salt and pH not stated; room temperature 20 min; 6% native PAGE; conditions: protein: recombinant; tags: MBP; label: biotin; blunt
T2 sequence: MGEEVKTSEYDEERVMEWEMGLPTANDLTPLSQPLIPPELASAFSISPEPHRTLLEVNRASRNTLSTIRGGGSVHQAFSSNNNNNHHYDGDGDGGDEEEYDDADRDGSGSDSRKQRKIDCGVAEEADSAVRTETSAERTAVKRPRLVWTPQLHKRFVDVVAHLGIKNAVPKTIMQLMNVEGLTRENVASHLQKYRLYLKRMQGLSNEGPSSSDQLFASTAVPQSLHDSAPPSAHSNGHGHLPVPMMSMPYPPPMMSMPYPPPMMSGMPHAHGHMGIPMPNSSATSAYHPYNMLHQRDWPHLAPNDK

B1: probe-ENOD40 (P1 region) (dsDNA)
DNA 1: TTGACATTCATATCCTTTGTATTTCAATTAGATTAGATATGTTCTACGGA
DNA 2: TCCGTAGAACATATCTAATCTAATTGAAATACAAAGGATATGAATGTCAA
B1: no binding (INN1-MBP (ELF3a)); binds (LUX1-MBP).

Reference: article PMC12120873, “Evening complex component ELF3 interacts with LUX proteins to repress soybean root nodulation”
